Assay results taken from patent publication US20250197491A1 (MACOMICS, published 2025).

B1: Antibody 2 (antibody, V domains shown)
VH: QVQLVESGGDLVKPGGSLRLSCAASGFTFRDYYMSWIRQAPGKGLEWVSYISPSGSTIFYADSVKGRFTISRDNAKNSLYLQMNSLRAEDTAVYYCAKDRVRLFDYWGQGTLVTVSS
VL: EIVLTQSPATLSLSPGERATLSCRASQSVSSSYLAWYQQKPGQAPRLLIYGASTRATGIPARFSGSGSGTDFTLTISRLEPEDFAVYYCQQRSNWPITFGQGTRLEIK
notes: Fully human antibody; IgG1 and IgG1 LALA variants also made for functional assays; also called Clone 2; Antibody Clone 2
B2: Reference Antibody 3 (anti-human LILRB1 and LILRB2 Ab) (antibody, V domains shown)
VH: QVQLVQSGAEVKKPGASVKVSCKASGYTFTDYYINWVRQAPGQGLEWMGNVNPNDGGTTYNQKFKGRVTMTTDTSTSTAYMELRSLRSDDTAVYYCARREIYFYGTIYYYAMDYWGQGTLVTVSS
VL: DIQLTQSPSFLSASVGDRVTITCRASESVDYYGNSFMYWYQQKPGKAPKLLIYFASNLESGVPSRFSGSGSGTEFTLTISSLQPEDFATYYCQQNNEDPWTFGGGTKVEIK

Key:
[1] = target: LILRB4 recombinant, full-length ectodomain (LILRB4 17-257) (human, UniProt Q8NHJ6 22-257); assay: summary table (single point ELISA); N = No
[2] = target: LILRB5 recombinant, full-length ectodomain (LILRB5 18-456) (human, UniProt O75023 24-456); assay: summary table (single point ELISA); N = No
Human LILRA2 ectodomain = target: T1, Human LILRA2 ectodomain (human, UniProt Q8N149 24-449); assay: summary table (single point ELISA); N = No
T1 construct: Recombinant protein from a commercial source

[3] = target: LILRA5 recombinant, full-length ectodomain (LILRA5 42-268) (human, UniProt A6NI73 42-268); assay: summary table (single point ELISA); N = No
[4] = target: T2, Human LILRB1 (D1-D2) fused to mouse IgG2a Fc (human); assay: summary table (ELISA); N = No
T2 construct: also called truncated (D1-D2) version of the LILRB1 ecto-domain

[5] = target: T3, Cynomolgus monkey (Macaca fascicularis) LILRB ectodomain fused to mIgG2a (cynomolgus monkey (Macaca fascicularis)); assay: summary table (ELISA); Rhesus & Cyno LILRB1/2 binding; Y = Yes
T3 construct: also called cynomolgus LILRB protein

[6] = target: T4, Rhesus monkey (Macaca mulatta) LILRB ectodomain fused to mIgG2a Fc (rhesus monkey (Macaca mulatta)); assay: as above
T4 construct: also called rhesus LILRB-mIgG2a; rhesus LILRB protein

[7] = target: LILRA4 recombinant, full-length ectodomain (LILRA4 24-446) (human, UniProt P59901 24-446); assay: multi-point ELISA, antigen coated, apparent EC50
Protocol: (§1) FIG. 32. Binding of Clones 1-5 to selected LILR family members tested by multiple point ELISA. Recombinant LILRB1, LILRB2, LILRB3, LILRA1, LILRA3, LILRA4, and LILRA6, or irrelevant control protein were coated on the ELISA plates. The plates were then blocked with milk in PBST. Next, the plates were incubated with serial dilutions (12.5 nM to 0.02 nM) of Clones 1-5 (A-E). Bound antibodies were detected using HRP-conjugated anti-human Fc antibodies and the chromogenic substrate.
as §1, with “Binding of” for “FIG. 32. Binding of”, “point ELISA. (FIG. 32) Recombinant LILRB1,” for “point ELISA. Recombinant LILRB1,”, “LILRA3, LILRA4, LILRA6, or” for “LILRA3, LILRA4, and LILRA6, or”, “nM) of Clone 1-5 (A-E).” for “nM) of Clones 1-5 (A-E).”

[8] = target: LILRA6 recombinant, full-length ectodomain (LILRA6 24-447) (human, UniProt Q6PI73 24-447); assay: multi-point ELISA, antigen coated, apparent EC50
Protocol: as §1
as §1, with “Binding of” for “FIG. 32. Binding of”, “point ELISA. (FIG. 32) Recombinant LILRB1,” for “point ELISA. Recombinant LILRB1,”, “LILRA3, LILRA4, LILRA6, or” for “LILRA3, LILRA4, and LILRA6, or”, “nM) of Clone 1-5 (A-E).” for “nM) of Clones 1-5 (A-E).”

Human LILRA1 ectodomain = target: T5, Human LILRA1 ectodomain (human, UniProt O75019 17-461); assay: multi-point ELISA, antigen coated, apparent EC50
T5 construct: Recombinant protein from a commercial source
Protocol: as §1
as §1, with “Binding of” for “FIG. 32. Binding of”, “point ELISA. (FIG. 32) Recombinant LILRB1,” for “point ELISA. Recombinant LILRB1,”, “LILRA3, LILRA4, LILRA6, or” for “LILRA3, LILRA4, and LILRA6, or”, “nM) of Clone 1-5 (A-E).” for “nM) of Clones 1-5 (A-E).”

[9] = target: LILRB1 recombinant, full-length ectodomain (human, UniProt Q8NHL6 24-461); assay: multi-point ELISA, antigen coated, apparent EC50
Protocol: as §1
as §1, with “Binding of” for “FIG. 32. Binding of”, “point ELISA. (FIG. 32) Recombinant LILRB1,” for “point ELISA. Recombinant LILRB1,”, “LILRA3, LILRA4, LILRA6, or” for “LILRA3, LILRA4, and LILRA6, or”, “nM) of Clone 1-5 (A-E).” for “nM) of Clones 1-5 (A-E).”

Human full length LILRA3 = target: T6, Human full length LILRA3 (human, UniProt Q8N6C8 24-439); assay: multi-point ELISA, antigen coated, apparent EC50
T6 construct: Commercial recombinant protein; also the parent of the LILRA3 peptide microarrays
Protocol: as §1
as §1, with “Binding of” for “FIG. 32. Binding of”, “point ELISA. (FIG. 32) Recombinant LILRB1,” for “point ELISA. Recombinant LILRB1,”, “LILRA3, LILRA4, LILRA6, or” for “LILRA3, LILRA4, and LILRA6, or”, “nM) of Clone 1-5 (A-E).” for “nM) of Clones 1-5 (A-E).”

[10] = target: LILRB2 recombinant, full-length ectodomain (LILRB2 22-458) (human, UniProt Q8N423 22-458); assay: multi-point ELISA, antigen coated, apparent EC50
Protocol: as §1
as §1, with “Binding of” for “FIG. 32. Binding of”, “point ELISA. (FIG. 32) Recombinant LILRB1,” for “point ELISA. Recombinant LILRB1,”, “LILRA3, LILRA4, LILRA6, or” for “LILRA3, LILRA4, and LILRA6, or”, “nM) of Clone 1-5 (A-E).” for “nM) of Clones 1-5 (A-E).”

[11] = target: LILRB3 recombinant, full-length ectodomain (LILRB3 24-443) (human, UniProt O75022 24-443); assay: multi-point ELISA, antigen coated, apparent EC50
Protocol: as §1
as §1, with “Binding of” for “FIG. 32. Binding of”, “point ELISA. (FIG. 32) Recombinant LILRB1,” for “point ELISA. Recombinant LILRB1,”, “LILRA3, LILRA4, LILRA6, or” for “LILRA3, LILRA4, and LILRA6, or”, “nM) of Clone 1-5 (A-E).” for “nM) of Clones 1-5 (A-E).”

[12] = target: T7, human LILRB1 ectodomain fused to mIgG2a Fc (human); assay: summary table (ELISA); Y = Yes
T7 construct: also called human LILRB1-mIgG2a; full length LILRB1 ectodomain

[13] = target: T8, Human LILRB1(L68P/A93T) ectodomain fused to mIgG2aFc (human); assay: ELISA, antigen coated, 10 nM antibody
T8 construct: The entry already carries the two substitutions
Text: (§2) FIG. 3. Mixed LILRB1 and LILRB2 expression in TAMs from melanoma cancer patients. Analysis of LILRB1 and LILRB2 detection in macrophages in pre- and post-anti-PD-1 and/or anti-CTLA-4 therapy treated melanoma patients (n=33) is shown using Smart-seq2 data from Sade-Feldman et al. https://pubmed.ncbi.nlm.nih.gov/30633907/FIG. 4. Binding to domains of human LILRB1. Plates were coated with recombinant full length LILRB1 ectodomain (SEQ ID NO: 41) or a protein comprising domain 1 and 2 of human LILRB1 protein (SEQ ID NO: 42), and then incubated with 10 nM Clones 1-5, Reference Ab 1, and Isotype control. The bound antibodies were detected using HRP-labeled secondary antibodies and the results were plotted on the graph as absorbance measured at 450 nm.
(§3) Binding to allelic forms of LILRB1. There are 4 major allelic variants of human LILRB1 protein ectodomain. The variants of LILRB1 were expressed as recombinant proteins comprising a modified LILRB1 ectodomain and mouse IgG2 Fc region (SEQ ID NO: 50 and 51) in suspension CHO cells, and purified by using techniques that were known in the art. These recombinant proteins were then used in the direct enzyme-linked immunosorbent assay (ELISA) to determine the antibodies potential to bind different allelic forms of LILRB1. In short, Maxisorp (Nunc) or similar immune-assay plates were coated with solutions of target proteins in PBS, at 4° C., overnight. Plates were then washed with PBS, blocked with 5% milk in PBS, and washed again. Test antibodies diluted in PBS were then added to the plates and incubated at room temperature for at least 1h. Plates were subsequently washed with PBS/0.05% Tween-20 (PBST) and incubated with a solution of horse radish peroxidase (HRP) labelled secondary antibodies at room temperature for at least 1 h. After washing with PBST and PBS, bound antibodies were detected using the 3,3′,5,5;-tetramethylbenzidine (TMB) chromogenic solution. After 5 to 10 minutes, the reaction was stopped with 1% sulphuric acid and absorbance read at 450 nm.
(§4) There are four major allelic variants within the ecto-domain of LILRB1 in human population [Human Molecular Genetics, 2005, Vol. 14, 2469-2480]; namely c.203T>C (L68P), c.277G>A (A93T), c.425T>C (I142T), and c.464G>T (S155I).

[14] = target: T9, Human LILRB1(I142T/S155I) ectodomain fused to mIgG2aFc (human); assay: ELISA, antigen coated, 10 nM antibody
T9 construct: The entry already carries the two substitutions
Text: as §2, §3, §4

Human full length LILRB2 = target: T10, Human full length LILRB2 (human, UniProt Q8N423 22-597); assay: flow cytometry, displacement of PE-labelled HLA-A2, HLA-E and HLA-G multimers from HEK293 cells overexpressing LILRB2
T10 construct: Over-expressed on HEK293 cells for flow cytometry; Also used here as the parent protein of the D3-D4 peptide microarrays; also called LILRB2 on HEK293 cells
Protocol: (§5) To investigate if the Antibodies 1 to 5 could neutralize binding of other HLA-As to LILRB1 or to LILRB2, HEK293 cells overexpressing the receptors were incubated with constant concentrations of PE-labelled HLA-A2, HLA-E, and HLA-G multimers and increasing concentrations of Antibodies 1 to 5 or the reference antibodies. The ability to neutralize binding of HLA to the cells was determined by flow cytometry (FIG. 21). None of Antibodies 1 to 5 neutralized binding of HLA-A (A), HLA-E (B), and […] to LILRB1 protein, up to the concentrations of 100 nM, whereas Reference 1 antibody (LILRB1 specific) and Reference 3 antibody (LILRB1/2 specific) neutralized the binding with an IC₅₀ in the sub- or low-nM range. Similarly, none of Antibodies 1 to 5 neutralised efficiently the binding of HLA-A (E) and HLA-G (G). […] Reference Antibody 2 (LILRB2 specific) and Reference Antibody 3 (LILRB1/2 specific), inhibited the binding for all HLAs, with IC₅₀ with sub- or low-nM range.

Human full length LILRB1 = target: T11, Human full length LILRB1 (human, UniProt Q8NHL6 24-650); assay: flow cytometry, displacement of PE-labelled HLA-A2, HLA-E and HLA-G multimers from HEK293 cells overexpressing LILRB1
T11 construct: Over-expressed on HEK293 cells for flow cytometry; also called LILRB1 on HEK293 cells; cell membrane embedded LILRB1
Protocol: as §5

T9 sequence (chain, as listed by the source I142T S155I I142T S155I limits assumed): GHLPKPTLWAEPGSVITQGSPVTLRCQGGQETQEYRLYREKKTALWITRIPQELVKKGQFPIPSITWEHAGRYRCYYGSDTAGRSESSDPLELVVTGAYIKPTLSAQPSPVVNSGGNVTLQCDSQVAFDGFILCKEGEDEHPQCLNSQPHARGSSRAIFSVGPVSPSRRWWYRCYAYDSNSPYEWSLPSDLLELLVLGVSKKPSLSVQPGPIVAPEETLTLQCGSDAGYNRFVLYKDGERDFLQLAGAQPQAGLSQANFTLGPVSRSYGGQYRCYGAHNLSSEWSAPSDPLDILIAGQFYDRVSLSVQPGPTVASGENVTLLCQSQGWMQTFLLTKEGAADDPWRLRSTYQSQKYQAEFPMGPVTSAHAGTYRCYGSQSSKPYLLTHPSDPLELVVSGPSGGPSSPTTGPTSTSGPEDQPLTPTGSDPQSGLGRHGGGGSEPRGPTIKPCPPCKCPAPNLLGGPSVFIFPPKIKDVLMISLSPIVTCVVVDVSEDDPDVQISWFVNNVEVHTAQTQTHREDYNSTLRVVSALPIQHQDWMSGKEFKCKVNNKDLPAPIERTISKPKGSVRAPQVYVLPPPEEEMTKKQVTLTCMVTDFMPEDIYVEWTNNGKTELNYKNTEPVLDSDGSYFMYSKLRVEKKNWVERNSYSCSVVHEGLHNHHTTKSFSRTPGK
T10 sequence (Q8N423 other isoform, or with tags, fused parts or gaps limits assumed): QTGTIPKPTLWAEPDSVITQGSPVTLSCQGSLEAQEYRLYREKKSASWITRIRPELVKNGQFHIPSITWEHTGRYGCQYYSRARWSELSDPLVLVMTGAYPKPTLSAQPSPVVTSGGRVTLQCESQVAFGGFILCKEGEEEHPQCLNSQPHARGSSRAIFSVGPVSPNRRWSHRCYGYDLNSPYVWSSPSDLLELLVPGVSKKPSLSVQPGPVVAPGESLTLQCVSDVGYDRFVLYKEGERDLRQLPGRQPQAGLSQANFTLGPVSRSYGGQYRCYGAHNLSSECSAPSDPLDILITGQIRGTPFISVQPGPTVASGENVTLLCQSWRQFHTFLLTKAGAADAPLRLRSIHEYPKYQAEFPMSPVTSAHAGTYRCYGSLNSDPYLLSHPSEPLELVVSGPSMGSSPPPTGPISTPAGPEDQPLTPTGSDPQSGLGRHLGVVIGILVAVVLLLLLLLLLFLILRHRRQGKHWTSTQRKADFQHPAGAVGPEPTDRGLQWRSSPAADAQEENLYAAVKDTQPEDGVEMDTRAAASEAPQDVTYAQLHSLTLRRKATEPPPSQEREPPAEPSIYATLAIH
T2 sequence (chain, as listed by the source limits assumed): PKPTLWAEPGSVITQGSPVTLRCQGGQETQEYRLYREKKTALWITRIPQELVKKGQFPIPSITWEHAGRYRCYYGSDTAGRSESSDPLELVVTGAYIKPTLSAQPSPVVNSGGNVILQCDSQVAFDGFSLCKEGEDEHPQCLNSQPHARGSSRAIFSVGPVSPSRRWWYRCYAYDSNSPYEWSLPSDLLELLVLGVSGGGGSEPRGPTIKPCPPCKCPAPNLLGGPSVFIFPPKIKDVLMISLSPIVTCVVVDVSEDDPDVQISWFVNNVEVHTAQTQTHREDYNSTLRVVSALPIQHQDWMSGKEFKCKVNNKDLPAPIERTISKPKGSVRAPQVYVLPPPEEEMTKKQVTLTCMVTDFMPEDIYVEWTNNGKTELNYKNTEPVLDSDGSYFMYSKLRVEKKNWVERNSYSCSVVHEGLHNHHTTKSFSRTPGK
T7 sequence (chain, as listed by the source limits assumed): as the sequence (chain, as listed by the source I142T S155I I142T S155I limits assumed) above, with T119I, I132S counted along it
T6 sequence (Q8N6C8 24-439 A105V limits assumed): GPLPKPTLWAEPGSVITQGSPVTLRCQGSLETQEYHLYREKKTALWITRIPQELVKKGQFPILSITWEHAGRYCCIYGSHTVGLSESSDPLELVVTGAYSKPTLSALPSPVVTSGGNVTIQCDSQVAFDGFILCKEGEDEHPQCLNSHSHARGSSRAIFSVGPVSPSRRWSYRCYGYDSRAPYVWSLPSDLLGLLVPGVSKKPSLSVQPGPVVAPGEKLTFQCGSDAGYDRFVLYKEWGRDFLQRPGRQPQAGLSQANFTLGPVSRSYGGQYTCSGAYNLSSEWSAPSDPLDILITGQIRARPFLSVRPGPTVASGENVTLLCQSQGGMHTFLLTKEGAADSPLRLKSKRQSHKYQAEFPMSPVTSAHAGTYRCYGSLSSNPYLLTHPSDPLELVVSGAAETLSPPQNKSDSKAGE
Sequence of LILRB2 recombinant, full-length ectodomain (LILRB2 22-458) (Q8N423 22-458): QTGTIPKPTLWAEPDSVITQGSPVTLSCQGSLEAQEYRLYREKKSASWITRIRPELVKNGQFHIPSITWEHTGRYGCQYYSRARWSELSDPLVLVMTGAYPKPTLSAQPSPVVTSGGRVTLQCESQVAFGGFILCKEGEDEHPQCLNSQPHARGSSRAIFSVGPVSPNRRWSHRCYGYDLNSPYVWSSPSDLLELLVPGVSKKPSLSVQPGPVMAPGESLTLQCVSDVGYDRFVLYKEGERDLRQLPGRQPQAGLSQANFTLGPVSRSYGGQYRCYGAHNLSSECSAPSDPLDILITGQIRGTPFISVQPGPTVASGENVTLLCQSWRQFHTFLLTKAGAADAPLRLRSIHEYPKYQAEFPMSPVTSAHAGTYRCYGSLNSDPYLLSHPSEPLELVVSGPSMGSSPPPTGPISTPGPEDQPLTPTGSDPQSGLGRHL
T5 sequence (O75019 17-461): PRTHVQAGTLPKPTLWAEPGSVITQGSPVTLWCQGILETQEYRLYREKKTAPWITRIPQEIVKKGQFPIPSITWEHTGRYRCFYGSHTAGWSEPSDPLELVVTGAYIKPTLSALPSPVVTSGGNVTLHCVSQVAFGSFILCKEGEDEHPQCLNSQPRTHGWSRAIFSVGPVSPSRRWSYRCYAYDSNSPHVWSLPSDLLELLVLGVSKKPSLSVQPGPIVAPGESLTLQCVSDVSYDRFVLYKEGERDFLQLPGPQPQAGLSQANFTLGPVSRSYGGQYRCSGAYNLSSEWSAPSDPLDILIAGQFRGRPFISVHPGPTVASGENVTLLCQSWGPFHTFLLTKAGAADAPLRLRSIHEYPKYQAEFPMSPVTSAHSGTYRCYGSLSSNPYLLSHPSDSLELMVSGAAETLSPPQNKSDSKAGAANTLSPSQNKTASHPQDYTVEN
Sequence of LILRB5 recombinant, full-length ectodomain (LILRB5 18-456) (O75023 24-456 limits assumed): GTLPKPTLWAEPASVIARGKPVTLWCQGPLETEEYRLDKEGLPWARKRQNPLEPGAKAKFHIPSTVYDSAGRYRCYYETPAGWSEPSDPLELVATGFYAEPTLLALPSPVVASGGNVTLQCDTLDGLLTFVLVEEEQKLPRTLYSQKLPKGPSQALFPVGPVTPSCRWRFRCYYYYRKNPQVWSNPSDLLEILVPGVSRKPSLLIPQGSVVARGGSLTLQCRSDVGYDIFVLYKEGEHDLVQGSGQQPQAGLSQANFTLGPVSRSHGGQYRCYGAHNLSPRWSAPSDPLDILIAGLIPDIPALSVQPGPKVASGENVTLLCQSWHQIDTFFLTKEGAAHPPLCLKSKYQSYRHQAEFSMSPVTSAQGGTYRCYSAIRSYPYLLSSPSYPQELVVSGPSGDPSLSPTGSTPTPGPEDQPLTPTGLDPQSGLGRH
Sequence of LILRA5 recombinant, full-length ectodomain (LILRA5 42-268) (A6NI73 42-268): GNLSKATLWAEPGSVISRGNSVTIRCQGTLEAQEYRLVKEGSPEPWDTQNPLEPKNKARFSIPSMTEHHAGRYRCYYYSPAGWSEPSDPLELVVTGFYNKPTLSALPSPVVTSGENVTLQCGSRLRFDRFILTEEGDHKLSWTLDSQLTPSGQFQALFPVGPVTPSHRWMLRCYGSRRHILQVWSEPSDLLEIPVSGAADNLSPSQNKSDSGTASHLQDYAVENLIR
Sequence of LILRA6 recombinant, full-length ectodomain (LILRA6 24-447) (Q6PI73 24-447): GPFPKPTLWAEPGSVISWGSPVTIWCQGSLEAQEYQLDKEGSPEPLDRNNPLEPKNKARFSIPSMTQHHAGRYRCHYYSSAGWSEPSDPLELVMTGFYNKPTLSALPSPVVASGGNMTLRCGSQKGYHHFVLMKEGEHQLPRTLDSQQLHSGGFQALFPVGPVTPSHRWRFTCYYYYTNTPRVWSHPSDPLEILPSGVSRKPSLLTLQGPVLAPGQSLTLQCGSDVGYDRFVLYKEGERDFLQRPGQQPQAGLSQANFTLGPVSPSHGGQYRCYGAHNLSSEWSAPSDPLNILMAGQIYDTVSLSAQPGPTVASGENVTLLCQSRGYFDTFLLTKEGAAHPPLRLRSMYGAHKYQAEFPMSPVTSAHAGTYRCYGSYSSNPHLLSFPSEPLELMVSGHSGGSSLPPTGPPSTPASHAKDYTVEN
Sequence of LILRB1 recombinant, full-length ectodomain (Q8NHL6 24-461 limits assumed): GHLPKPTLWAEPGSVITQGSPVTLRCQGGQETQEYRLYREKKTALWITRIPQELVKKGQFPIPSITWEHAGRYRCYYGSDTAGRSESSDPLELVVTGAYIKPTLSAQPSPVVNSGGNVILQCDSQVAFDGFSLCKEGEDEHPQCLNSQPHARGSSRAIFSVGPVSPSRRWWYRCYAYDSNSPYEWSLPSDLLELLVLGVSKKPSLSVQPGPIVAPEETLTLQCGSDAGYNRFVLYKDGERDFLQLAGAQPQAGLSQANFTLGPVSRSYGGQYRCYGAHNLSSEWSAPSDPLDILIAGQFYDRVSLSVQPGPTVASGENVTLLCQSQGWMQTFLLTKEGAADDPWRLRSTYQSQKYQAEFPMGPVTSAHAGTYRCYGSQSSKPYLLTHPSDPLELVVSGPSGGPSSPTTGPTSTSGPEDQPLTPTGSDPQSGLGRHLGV
T8 sequence (chain, as listed by the source L68P A93T L68P A93T limits assumed): as the sequence (chain, as listed by the source I142T S155I I142T S155I limits assumed) above, with L45P, A70T, T119I, I132S counted along it

Binder | binding result [1] | binding result [2] | binding result (Human LILRA2 ectodomain) | binding result [3] | binding result [4] | binding result [5] | binding result [6] | EC50 [7] [nM] | EC50 [8] [nM] | EC50 (Human LILRA1 ectodomain) [nM] | EC50 [9] [nM] | EC50 (Human full length LILRA3) [nM] | EC50 [10] [nM] | EC50 [11] [nM] | binding result [12] | binding result [13] | binding result [14] | binding result (Human full length LILRB2) | binding result (Human full length LILRB1)
B1 | no binding (tested: 1 nM) | no binding (tested: 1 nM) | no binding (tested: 1 nM) | no binding (tested: 1 nM) | no binding | binds | binds | 0.62 | 0.92 | 8.37 | 0.78 | 0.84 | 0.74 | 0.69 | binds | binds | binds |  | 
B2 |  |  |  |  |  |  |  |  |  |  |  |  |  |  |  |  |  | binds | binds
